Test results published in the supplement of paper PMC10724198.
± gives the standard deviation of the averaged measurements.

Assays:
[1] = test system: Saccharomyces cerevisiae; assay: protein stability index of tFT-peptide fusion (C-terminal peptide) (PSI (0-1 scale)); higher = more stable (slower turnover); details: genetic background: wild type; temperature: 30 C
[2] = test system: Saccharomyces cerevisiae; assay: as above
Description: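 MPS profiling in S. cerevisiae of the tFT-X12 degron library: putative degron peptides plus stable controls, 12 aa, fused to the C-terminus of a sfGFP-mCherry timer. Cells are FACS-sorted into 8 mCherry/sfGFP bins and deep-sequenced. PSI runs from 0 (unstable) to 1 (stable). Backgrounds are wild type, das1Δ and doa10Δ at 30 °C, and wild type, das1Δ, cdc34-1 and cdc53-1 at 37 °C; 2-3 technical replicates each.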

[3] = genetic background: cdc34-1, temperature: 37 C
[4] = genetic background: cdc53-1, temperature: 37 C
[5] = genetic background: das1 deletion, temperature: 30 C
[6] = genetic background: das1 deletion, temperature: 37 C
[7] = genetic background: doa10 deletion, temperature: 30 C
[8] = genetic background: wild type, temperature: 30 C
[9] = genetic background: wild type, temperature: 37 C
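Also: PSI is a weighted mean of sequencing reads over stability bins, variants kept only with over 10 reads, mCherry proximal and sfGFP distal, peptide attached via GGGS linker.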

Row | Sequence | protein stability index [1] | protein stability index [2, 3] | protein stability index [2, 4] | protein stability index [2, 5] | protein stability index [2, 6] | protein stability index [2, 7] | protein stability index [2, 8] | protein stability index [2, 9]
1 | GCIMHLTIYVRD | 0.322 ± 0.0096 | 0.302 ± 0.03 | 0.3761 ± 0.0008 | 0.265 ± 0.026 | 0.439 ± 0.032 | 0.2235 ± 0.0014 | 0.26 ± 0.028 | 0.4088 ± 0.0016
2 | GCPRSWSFNIYV | 0.408 ± 0.04 | 0.686 ± 0.046 | 0.739 ± 0.0099 | 0.665 ± 0.013 | 0.742 ± 0.018 | 0.182 ± 0.018 | 0.199 ± 0.022 | 0.463 ± 0.013
3 | GCRSLRLWLTFS | 0.443 ± 0.029 | 0.638 ± 0.018 | 0.7023 ± 0.0065 | 0.628 ± 0.02 | 0.726 ± 0.013 | 0.299 ± 0.0033 | 0.312 ± 0.015 | 0.551 ± 0.024
4 | GCVVVLIPVVSA | 0.382 ± 0.022 | 0.333 ± 0.014 | 0.338 ± 0.0038 | 0.249 ± 0.038 | 0.415 ± 0.0087 | 0.215 ± 0.0045 | 0.266 ± 0.015 | 0.381 ± 0.0088
5 | GEAYVYLFVYSC | 0.25 ± 0.0051 | 0.4329 ± 0.0022 | 0.467 ± 0.0051 | 0.276 ± 0.036 | 0.541 ± 0.019 | 0.16 ± 0.012 | 0.173 ± 0.017 | 0.387 ± 0.0098
6 | GEWCLPLRLVVY | 0.22 ± 0.043 | 0.061 ± 0.013 | 0.0685 ± 0.024 | 0.185 ± 0.021 | 0.201 ± 0.011 | 0.137 ± 0.01 | 0.172 ± 0.02 | 0.174 ± 0.012
7 | GFCVRIFHGFLH | 0.351 ± 0.01 | 0.634 ± 0.0084 | 0.7 ± 0.044 | 0.649 ± 0.018 | 0.7197 ± 0.0045 | 0.215 ± 0.0082 | 0.251 ± 0.04 | 0.501 ± 0.014
8 | GFDVFWLWVVVA | 0.125 ± 0.019 | 0.0676 ± 0.024 | 0.208 ± 0.017 | 0.192 ± 0.032 | 0.307 ± 0.022 | 0.0812 ± 0.011 | 0.103 ± 0.027 | 0.0966 ± 0.015
9 | GFRMACYIRVLS | 0.296 ± 0.016 | 0.337 ± 0.015 | 0.38 ± 0.017 | 0.245 ± 0.046 | 0.445 ± 0.0051 | 0.175 ± 0.01 | 0.182 ± 0.026 | 0.286 ± 0.02
10 | GFSFVCFSPFLF | 0.42 ± 0.038 | 0.667 ± 0.041 | 0.779 ± 0.02 | 0.65 ± 0.0058 | 0.745 ± 0.011 | 0.3864 ± 0.0023 | 0.41 ± 0.02 | 0.5401 ± 0.001
11 | GFVRTVWLMCYV | 0.245 ± 0.032 | 0.286 ± 0.027 | 0.341 ± 0.017 | 0.285 ± 0.025 | 0.417 ± 0.013 | 0.129 ± 0.017 | 0.161 ± 0.012 | 0.203 ± 0.013
12 | GFWLAFLWYRES | 0.4406 ± 0.0022 | 0.386 ± 0.067 | 0.507 ± 0.021 | 0.34 ± 0.035 | 0.548 ± 0.016 | 0.222 ± 0.015 | 0.248 ± 0.036 | 0.433 ± 0.033
13 | GGAVGVRGGCRG | 0.452 ± 0.033 | 0.565 ± 0.12 | 0.7112 ± 0.0027 | 0.496 ± 0.017 | 0.635 ± 0.036 | 0.522 ± 0.05 | 0.512 ± 0.027 | 0.607 ± 0.026
14 | GGCILYFCMSIV | 0.4 ± 0.026 | 0.411 ± 0.021 | 0.492 ± 0.0065 | 0.387 ± 0.029 | 0.505 ± 0.011 | 0.371 ± 0.0097 | 0.374 ± 0.0063 | 0.472 ± 0.026
15 | GGGSRICIVRLS | 0.337 ± 0.077 | 0.654 ± 0.092 | 0.7229 ± 0.0024 | 0.636 ± 0.017 | 0.722 ± 0.0083 | 0.178 ± 0.025 | 0.197 ± 0.023 | 0.406 ± 0.03
16 | GGGVRWGVLVLG | 0.474 ± 0.011 | 0.527 ± 0.007 | 0.606 ± 0.032 | 0.4 ± 0.035 | 0.599 ± 0.013 | 0.346 ± 0.017 | 0.391 ± 0.036 | 0.553 ± 0.012
17 | GGLGIVWLWLVV | 0.378 ± 0.047 | 0.344 ± 0.021 | 0.42 ± 0.024 | 0.307 ± 0.033 | 0.4926 ± 0.0048 | 0.234 ± 0.016 | 0.282 ± 0.02 | 0.467 ± 0.016
18 | GGLRILLRLVWT | 0.454 ± 0.025 | 0.471 ± 0.052 | 0.47 ± 0.014 | 0.377 ± 0.033 | 0.488 ± 0.008 | 0.381 ± 0.011 | 0.345 ± 0.045 | 0.471 ± 0.014
19 | GGWVIVFMVGRG | 0.427 ± 0.02 | 0.523 ± 0.049 | 0.629 ± 0.084 | 0.362 ± 0.033 | 0.5982 ± 0.002 | 0.334 ± 0.0065 | 0.3607 ± 0.0035 | 0.535 ± 0.02
20 | GIALYVCFICVG | 0.245 ± 0.05 | 0.213 ± 0.0051 | 0.364 ± 0.013 | 0.253 ± 0.017 | 0.4325 ± 0.0026 | 0.137 ± 0.026 | 0.17 ± 0.015 | 0.276 ± 0.012

Row | Sequence | protein stability index [1] | protein stability index [2, 3] | protein stability index [2, 4] | protein stability index [2, 5] | protein stability index [2, 6] | protein stability index [2, 7] | protein stability index [2, 8] | protein stability index [2, 9]
21 | GIIRVSSQVIVR | 0.523 ± 0.035 | 0.565 ± 0.0072 | 0.607 ± 0.018 | 0.445 ± 0.026 | 0.617 ± 0.0065 | 0.422 ± 0.012 | 0.443 ± 0.0097 | 0.5905 ± 0.0054
22 | GLCLMICVLCFV | 0.299 ± 0.0039 | 0.207 ± 0.0085 | 0.315 ± 0.023 | 0.244 ± 0.027 | 0.382 ± 0.0052 | 0.214 ± 0.00016 | 0.23 ± 0.027 | 0.337 ± 0.023
23 | GLCSFPCSSCRL | 0.756 ± 0.052 | 0.875 ± 0.023 | 0.8868 ± 0.0025 | 0.76 ± 0.018 | 0.812 ± 0.028 | 0.772 ± 0.024 | 0.772 ± 0.054 | 0.836 ± 0.021
24 | GLCVGRMFVRQI | 0.454 ± 0.011 | 0.6614 ± 0.0031 | 0.7126 ± 0.0054 | 0.661 ± 0.018 | 0.7222 ± 0.005 | 0.248 ± 0.0031 | 0.263 ± 0.026 | 0.5463 ± 0.0024
25 | GLFWWVWAGFFC | 0.436 ± 0.011 | 0.7005 ± 0.0052 | 0.7681 ± 0.0013 | 0.583 ± 0.023 | 0.8189 ± 0.0055 | 0.428 ± 0.025 | 0.421 ± 0.018 | 0.624 ± 0.056
26 | GLGFFMSFCFFL | 0.484 ± 0.036 | 0.554 ± 0.015 | 0.579 ± 0.031 | 0.477 ± 0.06 | 0.567 ± 0.011 | 0.474 ± 0.0077 | 0.4562 ± 0.0037 | 0.55817 ± 0.00049
27 | GLLAWGCVFWVV | 0.259 ± 0.014 | 0.402 ± 0.037 | 0.52 ± 0.01 | 0.336 ± 0.048 | 0.544 ± 0.01 | 0.167 ± 0.015 | 0.198 ± 0.017 | 0.3379 ± 0.00092
28 | GLLGRSRLIFYN | 0.517 ± 0.088 | 0.721 ± 0.026 | 0.8063 ± 0.0023 | 0.661 ± 0.013 | 0.788 ± 0.01 | 0.427 ± 0.0058 | 0.458 ± 0.018 | 0.666 ± 0.0092
29 | GLVAGVYVGSGL | 0.701 ± 0.02 | 0.7099 ± 0.0059 | 0.759 ± 0.011 | 0.629 ± 0.036 | 0.741 ± 0.0076 | 0.648 ± 0.031 | 0.616 ± 0.013 | 0.721 ± 0.01
30 | GMCRVELIATCG | 0.307 ± 0.031 | 0.368 ± 0.039 | 0.409 ± 0.018 | 0.276 ± 0.036 | 0.453 ± 0.011 | 0.229 ± 0.0046 | 0.28 ± 0.026 | 0.4381 ± 0.0011
31 | GMGYISVVVWSH | 0.208 ± 0.0092 | 0.0293 ± 0.0072 | 0.1 ± 0.029 | 0.141 ± 0.046 | 0.2283 ± 0.00048 | 0.104 ± 0.015 | 0.114 ± 0.017 | 0.155 ± 0.017
32 | GQLKGKDETEKK | 0.191 ± 0.021 | 0.7023 ± 0.005 | 0.749 ± 0.027 | 0.616 ± 0.023 | 0.769 ± 0.029 | 0.645 ± 0.027 | 0.655 ± 0.051 | 0.691 ± 0.0094
33 | GRHRRYLLLPVH | 0.419 ± 0.015 | 0.487 ± 0.029 | 0.5232 ± 0.0027 | 0.369 ± 0.028 | 0.541 ± 0.0057 | 0.308 ± 0.0055 | 0.35 ± 0.019 | 0.485 ± 0.013
34 | GRSVLIGLIVRC | 0.4701 ± 0.0034 | 0.417 ± 0.015 | 0.433 ± 0.014 | 0.332 ± 0.048 | 0.53715 ± 0.00026 | 0.437 ± 0.023 | 0.349 ± 0.022 | 0.479 ± 0.0083
35 | GTLSSSLIKSCA | 0.52 ± 0.057 | 0.602 ± 0.036 | 0.616 ± 0.017 | 0.488 ± 0.027 | 0.637 ± 0.013 | 0.481 ± 0.01 | 0.499 ± 0.029 | 0.614 ± 0.0095
36 | GTVRGDLSLWLC | 0.349 ± 0.11 | 0.622 ± 0.047 | 0.745 ± 0.0076 | 0.681 ± 0.0076 | 0.765 ± 0.015 | 0.156 ± 0.012 | 0.17 ± 0.031 | 0.274 ± 0.023
37 | GVGTFRLCVLLV | 0.197 ± 0.02 | 0.233 ± 0.004 | 0.2473 ± 0.0021 | 0.273 ± 0.029 | 0.3697 ± 0.0013 | 0.156 ± 0.022 | 0.138 ± 0.0077 | 0.128 ± 0.0081
38 | GVQVIWGWARVF | 0.0923 ± 0.032 | 0.51 ± 0.14 | 0.595 ± 0.019 | 0.507 ± 0.042 | 0.654 ± 0.019 | 0.0987 ± 0.029 | 0.0712 ± 0.032 | 0.131 ± 0.036
39 | GVVVWWCYFVFV | 0.257 ± 0.03 | 0.181 ± 0.012 | 0.298 ± 0.034 | 0.183 ± 0.031 | 0.3631 ± 0.00064 | 0.161 ± 0.0072 | 0.161 ± 0.021 | 0.321 ± 0.0065
